# Measurements published in US20110230370A1 (CALIFORNIA INSTITUTE OF TECHNOLOGY, published 2011).
# T1: Doa10myc13 (full-length, C-terminally myc13-tagged S. cerevisiae Doa10 E3 Ub ligase) (S. cerevisiae, UniProt P40318 1-1319)
# T1 construct: mature; also called mycn-tagged Doa10; Doa10men
# T1 sequence (looked up): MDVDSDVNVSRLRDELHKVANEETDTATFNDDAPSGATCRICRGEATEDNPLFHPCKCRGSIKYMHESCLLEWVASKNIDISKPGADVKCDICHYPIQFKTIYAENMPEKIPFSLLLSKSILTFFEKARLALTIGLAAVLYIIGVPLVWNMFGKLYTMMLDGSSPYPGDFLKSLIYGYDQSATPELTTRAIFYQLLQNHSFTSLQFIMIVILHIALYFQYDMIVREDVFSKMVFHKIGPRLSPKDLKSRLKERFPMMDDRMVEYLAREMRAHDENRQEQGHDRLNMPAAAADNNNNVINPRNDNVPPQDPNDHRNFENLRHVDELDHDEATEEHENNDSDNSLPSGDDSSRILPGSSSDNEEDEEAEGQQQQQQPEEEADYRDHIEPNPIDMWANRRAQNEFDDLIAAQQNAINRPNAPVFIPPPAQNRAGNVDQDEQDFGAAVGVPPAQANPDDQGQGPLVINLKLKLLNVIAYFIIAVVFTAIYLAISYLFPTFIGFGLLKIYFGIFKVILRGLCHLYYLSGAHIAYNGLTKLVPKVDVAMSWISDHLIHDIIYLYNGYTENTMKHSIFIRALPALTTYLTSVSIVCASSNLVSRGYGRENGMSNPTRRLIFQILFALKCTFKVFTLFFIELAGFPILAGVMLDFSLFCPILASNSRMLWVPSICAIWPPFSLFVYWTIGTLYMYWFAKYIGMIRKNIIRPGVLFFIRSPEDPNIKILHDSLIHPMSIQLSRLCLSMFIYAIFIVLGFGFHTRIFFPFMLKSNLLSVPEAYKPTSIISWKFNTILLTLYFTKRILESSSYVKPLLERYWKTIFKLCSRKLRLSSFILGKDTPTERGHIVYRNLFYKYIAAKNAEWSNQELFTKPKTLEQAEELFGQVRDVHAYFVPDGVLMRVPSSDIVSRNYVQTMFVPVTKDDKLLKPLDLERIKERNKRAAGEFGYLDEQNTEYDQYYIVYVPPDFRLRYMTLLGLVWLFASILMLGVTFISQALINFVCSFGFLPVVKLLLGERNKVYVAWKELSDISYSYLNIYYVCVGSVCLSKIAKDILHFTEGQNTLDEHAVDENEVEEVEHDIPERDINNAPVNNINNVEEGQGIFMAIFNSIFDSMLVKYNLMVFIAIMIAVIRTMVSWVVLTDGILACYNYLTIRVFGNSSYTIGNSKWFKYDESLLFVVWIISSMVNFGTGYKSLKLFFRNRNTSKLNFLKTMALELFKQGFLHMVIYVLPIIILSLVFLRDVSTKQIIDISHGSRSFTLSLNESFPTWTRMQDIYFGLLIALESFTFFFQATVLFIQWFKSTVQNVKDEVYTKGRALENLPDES
# B1: synthetic peptide XIFSTDTGPGGC with X=Arg (peptide)
# peptide: RIFSTDTGPGGC
# notes: also called nsP4-derived control peptide (X=Arg)
# B2: synthetic peptide XIFSTDTGPGGC with X=Met (peptide)
# peptide: MIFSTDTGPGGC
# notes: also called nsP4-derived control peptide (X=Met)
# B3: synthetic peptide XIFSTDTGPGGC with X=Phe (peptide)
# peptide: FIFSTDTGPGGC
# notes: also called nsP4-derived control peptide (X=Phe)
# What was measured:
# [1] = target: ^MNMATα2f (wild-type full-length MATα2, C-terminally flag-tagged) (S. cerevisiae) (UniProt P0CY08); assay: cell-based or functional assay
# [2] = target: T1, Doa10myc13 (full-length, C-terminally …); assay: X-peptide pulldown from yeast extract, anti-myc immunoblot
Molecule,binding result [2],also measured
"Doa10 E3 Ub ligase (endogenous, S. cerevisiae) (from UniProt P40318 1-1319)",,"level of MATα2f at 0 min (end of pulse) in wild-type cells relative to doa10Δ cells (100%), Ub-reference ^35S-pulse-chase [1]: 55%"
"Doa10 E3 Ub ligase (endogenous, S. cerevisiae) (from UniProt P40318 1-1319) (enzyme)",,"in vivo half-life of ^MNMATα2f, ^35S-pulse-chase, doa10Δ ubc4Δ cells (Doa10 absent) [1]: 35 min; in vivo half-life of ^MNMATα2f, ^35S-pulse-chase, ubc4Δ cells (Doa10 present) [1]: 9 min"
B1,no binding,
B2,no binding,
B3,no binding,
